Earlier results as cited in article PMC6143667.

Target: PKA catalytic subunit (UniProt P17612)

## PKA regulatory subunit RII (from UniProt P31323)
  Kd: 0.1 nM
